The target in test [1] is SARS-CoV-2 spike glycoprotein (S) (SARS-CoV-2) (UniProt P0DTC2). Briefly: […], running buffer TBS, […].
Test [2] has as its target influenza B haemagglutinin (HA) B/Maryland/15/16 (influenza B virus (B/Maryland/15/16)). The experiment in a line: […], running buffer TBS, […].

A word on the stoichiometry N: it is the number of molecules, sites or subunits per partner or assembly.

As to “SARS-CoV-2 spike glycoprotein (S) (from UniProt P0DTC2 14-1273) (natural protein)”, in test [1], the stoichiometry N turned out to be 3.
“influenza B haemagglutinin (HA) B/Maryland/15/16 (natural protein)” had a stoichiometry N in test [2] of 3.

The values are drawn from paper PMC12404239.
